Our source for the abundance fitness values is the Human Domainome abundance scans (Beltran et al. 2025).

± gives the uncertainty stated by the source.

B1: COUP transcription factor 1, residues 83 to 159; numbered along this chain, P10589 (parent)
chain: HIECVVCGDKSSGKHYGQFTCEGCKSFFKRSVRRNLTYTCRANRNCPIDQHHRNQCQYCRLKKCLKVGMRREAVQRG

In this series the parent is B1. As to the kind of experiment: abundance fitness (aPCA) (normalised: wild type 0, dead -1); higher = more abundant; growth selection in yeast, the domain comes from the species named. The following applies: Homo sapiens.
As for HIECVVCGDKSSGKHYGQFTCEGCKSFFKRSVRRNLTYTCRANNNCPIDQHHRNQCQYCRLKKCLKVGMRREAVQRG [R44N], the abundance fitness was 0.11 ± 0.075. In the case of HIECVVCGDKSSGKHYGQFTCEGCKSFFKRSVRRNLTYTCRANCNCPIDQHHRNQCQYCRLKKCLKVGMRREAVQRG [R44C] it was -0.153 ± 0.073; in that of HIECVVCGDKSSGKHYGQFTCEGCKSFFKRSVRRNLTYTCRANSNCPIDQHHRNQCQYCRLKKCLKVGMRREAVQRG [R44S], -0.024 ± 0.043. Take HIECVVCGDKSSGKHYGQFTCEGCKSFFKRSVRRNLTYTCRANANCPIDQHHRNQCQYCRLKKCLKVGMRREAVQRG [R44A]: the abundance fitness is 0.077 ± 0.036. In the case of HIECVVCGDKSSGKHYGQFTCEGCKSFFKRSVRRNLTYTCRANVNCPIDQHHRNQCQYCRLKKCLKVGMRREAVQRG [R44V] it was -0.292 ± 0.048.

HIECVVCGDKSSGKHYGQFTCEGCKSFFKRSVRRNLTYTCRANINCPIDQHHRNQCQYCRLKKCLKVGMRREAVQRG [R44I]: the abundance fitness was 0.038 ± 0.089. With HIECVVCGDKSSGKHYGQFTCEGCKSFFKRSVRRNLTYTCRANYNCPIDQHHRNQCQYCRLKKCLKVGMRREAVQRG [R44Y] the figure was -0.432 ± 0.2.

On to HIECVVCGDKSSGKHYGQFTCEGCKSFFKRSVRRNLTYTCRANENCPIDQHHRNQCQYCRLKKCLKVGMRREAVQRG [R44E], for which the abundance fitness is 0.082 ± 0.041. Consider HIECVVCGDKSSGKHYGQFTCEGCKSFFKRSVRRNLTYTCRANWNCPIDQHHRNQCQYCRLKKCLKVGMRREAVQRG [R44W], for which the abundance fitness was -0.07 ± 0.051. With HIECVVCGDKSSGKHYGQFTCEGCKSFFKRSVRRNLTYTCRANPNCPIDQHHRNQCQYCRLKKCLKVGMRREAVQRG [R44P] the figure was -0.405 ± 0.08; with HIECVVCGDKSSGKHYGQFTCEGCKSFFKRSVRRNLTYTCRANTNCPIDQHHRNQCQYCRLKKCLKVGMRREAVQRG [R44T], 0.054 ± 0.055; with HIECVVCGDKSSGKHYGQFTCEGCKSFFKRSVRRNLTYTCRANKNCPIDQHHRNQCQYCRLKKCLKVGMRREAVQRG [R44K], -0.071 ± 0.064. In the case of HIECVVCGDKSSGKHYGQFTCEGCKSFFKRSVRRNLTYTCRANQNCPIDQHHRNQCQYCRLKKCLKVGMRREAVQRG [R44Q] it was -0.048 ± 0.065.

Take HIECVVCGDKSSGKHYGQFTCEGCKSFFKRSVRRNLTYTCRANHNCPIDQHHRNQCQYCRLKKCLKVGMRREAVQRG [R44H]: the abundance fitness is -0.003 ± 0.096. As for HIECVVCGDKSSGKHYGQFTCEGCKSFFKRSVRRNLTYTCRANFNCPIDQHHRNQCQYCRLKKCLKVGMRREAVQRG [R44F], the abundance fitness was -0.207 ± 0.11.

Regarding HIECVVCGDKSSGKHYGQFTCEGCKSFFKRSVRRNLTYTCRANDNCPIDQHHRNQCQYCRLKKCLKVGMRREAVQRG [R44D], the abundance fitness stood at 0.084 ± 0.06. For HIECVVCGDKSSGKHYGQFTCEGCKSFFKRSVRRNLTYTCRANMNCPIDQHHRNQCQYCRLKKCLKVGMRREAVQRG [R44M], the abundance fitness was determined as 0.057 ± 0.052. With HIECVVCGDKSSGKHYGQFTCEGCKSFFKRSVRRNLTYTCRAIRNCPIDQHHRNQCQYCRLKKCLKVGMRREAVQRG [N43I], the abundance fitness was -0.335 ± 0.24.

Regarding HIECVVCGDKSSGKHYGQFTCEGCKSFFKRSVRRNLTYTCRATRNCPIDQHHRNQCQYCRLKKCLKVGMRREAVQRG [N43T], the abundance fitness was -0.051 ± 0.097. Regarding HIECVVCGDKSSGKHYGQFTCEGCKSFFKRSVRRNLTYTCRAERNCPIDQHHRNQCQYCRLKKCLKVGMRREAVQRG [N43E], the abundance fitness turned out to be 0.227 ± 0.065.

Regarding HIECVVCGDKSSGKHYGQFTCEGCKSFFKRSVRRNLTYTCRAPRNCPIDQHHRNQCQYCRLKKCLKVGMRREAVQRG [N43P], the abundance fitness is -0.256 ± 0.17.

As for HIECVVCGDKSSGKHYGQFTCEGCKSFFKRSVRRNLTYTCRAARNCPIDQHHRNQCQYCRLKKCLKVGMRREAVQRG [N43A], the abundance fitness was found to be 0.152 ± 0.06. With HIECVVCGDKSSGKHYGQFTCEGCKSFFKRSVRRNLTYTCRASRNCPIDQHHRNQCQYCRLKKCLKVGMRREAVQRG [N43S] the figure was 0.011 ± 0.064; with HIECVVCGDKSSGKHYGQFTCEGCKSFFKRSVRRNLTYTCRAYRNCPIDQHHRNQCQYCRLKKCLKVGMRREAVQRG [N43Y], -0.374 ± 0.23.

Take HIECVVCGDKSSGKHYGQFTCEGCKSFFKRSVRRNLTYTCRARRNCPIDQHHRNQCQYCRLKKCLKVGMRREAVQRG [N43R]: the abundance fitness is 0.012 ± 0.051.

With HIECVVCGDKSSGKHYGQFTCEGCKSFFKRSVRRNLTYTCRAMRNCPIDQHHRNQCQYCRLKKCLKVGMRREAVQRG [N43M], the abundance fitness is -0.222 ± 0.13. With HIECVVCGDKSSGKHYGQFTCEGCKSFFKRSVRRNLTYTCRADRNCPIDQHHRNQCQYCRLKKCLKVGMRREAVQRG [N43D], the abundance fitness was 0.278 ± 0.099. In the case of HIECVVCGDKSSGKHYGQFTCEGCKSFFKRSVRRNLTYTCRAQRNCPIDQHHRNQCQYCRLKKCLKVGMRREAVQRG [N43Q], the abundance fitness is 0.027 ± 0.1. In the case of HIECVVCGDKSSGKHYGQFTCEGCKSFFKRSVRRNLTYTCRALRNCPIDQHHRNQCQYCRLKKCLKVGMRREAVQRG [N43L] it was -0.054 ± 0.068; in that of HIECVVCGDKSSGKHYGQFTCEGCKSFFKRSVRRNLTYTCRAVRNCPIDQHHRNQCQYCRLKKCLKVGMRREAVQRG [N43V], 0.128 ± 0.071; in that of HIECVVCGDKSSGKHYGQFTCEGCKSFFKRSVRRNLTYTCRAKRNCPIDQHHRNQCQYCRLKKCLKVGMRREAVQRG [N43K], 0.018 ± 0.081. On to HIECVVCGDKSSGKHYGQFTCEGCKSFFKRSVRRNLTYTCRAWRNCPIDQHHRNQCQYCRLKKCLKVGMRREAVQRG [N43W], for which the abundance fitness was determined as 0.015 ± 0.072. In the case of HIECVVCGDKSSGKHYGQFTCEGCKSFFKRSVRRNLTYTCRAFRNCPIDQHHRNQCQYCRLKKCLKVGMRREAVQRG [N43F] it was -0.22 ± 0.2. With HIECVVCGDKSSGKHYGQFTCEGCKSFFKRSVRRNLTYTCRAGRNCPIDQHHRNQCQYCRLKKCLKVGMRREAVQRG [N43G] the figure was 0.051 ± 0.05; with HIECVVCGDKSSGKHYGQFTCEGCKSFFKRSVRRNLTYTCRAHRNCPIDQHHRNQCQYCRLKKCLKVGMRREAVQRG [N43H], -0.319 ± 0.19.
